According to patent US20120164068A1 (AVIPEP, published 2012):

Legend:
[1] = target: T1, recombinant HER2 ectodomain (UniProt P04626 23-652, limits assumed); experiment: column shift assay: size exclusion chromatography of the Avibody with and without soluble antigen (recombinant HER2 ectodomain), A280
T1 construct: extracellular domain

[2] = target: T1, recombinant HER2 ectodomain; experiment: as above; remark: listed apart in the source
[3] = target: T1, recombinant HER2 ectodomain; experiment: column shift assay: size exclusion chromatography of the PEG24 conjugate with and without soluble antigen (recombinant HER2 ectodomain), A280

Binder	binding result [1]	other results
AVP07-63 anti-HER2 diabody (Cys at Kabat L8 and L12, CDR3H cysteines removed, N-terminal serine; Myc+(His)6 tag) (other, Diabody) SVQLVQSGAEVKKPGESLKISCKGSGYSFTSYWIAWVRQMPGKGLEYMGLIYPGDSDTKYSPSFQGQVTISVDKSVSTAYLQWSSLKPSDSAVYFCARHDVGYASSSNAAKWPEYFQHWGQGTLVTVSSGGGGSQSVLTQPCSSCAAPGQKVTISCSGSSSNIGNNYVSWYQQLPGTVPKLLIYGHTNRPAGVPDRFSGSKSGTSASLAISGFRSEDEADYYCAAWDDSLSGWVFGGGTKLTVLG	binds	
AVP07-17 anti-HER2 diabody (other, Diabody of two VH-Gly4Ser-VL chains from a human anti-HER2 mAb, with a lambda VL; also called AVP07-17 Avibody) QVQLVQSGAEVKKPGESLKISCKGSGYSFTSYWIAWVRQMPGKGLEYMGLIYPGDSDTKYSPSFQGQVTISVDKSVSTAYLQWSSLKPSDSAVYFCARHDVGYCSSSNCAKWPEYFQHWGQGTLVTVSSGGGGSQSVLTQPPSVSAAPGQKVTISCSGSSSNIGNNYVSWYQQLPGTVPKLLIYGHTNRPAGVPDRFSGSKSGTSASLAISGFRSEDEADYYCAAWDDSLSGWVFGGGTKLTVLG	binds	
AVP07-71 anti-HER2 scFv (Cys at Kabat L8 and L12, CDR3H cysteines removed, N-terminal serine) (scFv, Monomeric scFv, unconjugated) scFv: SVQLVQSGAEVKKPGESLKISCKGSGYSFTSYWIAWVRQMPGKGLEYMGLIYPGDSDTKYSPSFQGQVTISVDKSVSTAYLQWSSLKPSDSAVYFCARHDVGYASSSNAAKWPEYFQHWGQGTLVTVSSGGGGSGGGGSGGGGSQSVLTQPCSSCAAPGQKVTISCSGSSSNIGNNYVSWYQQLPGTVPKLLIYGHTNRPAGVPDRFSGSKSGTSASLAISGFRSEDEADYYCAAWDDSLSGWVFGGGTKLTVLG	binds	
AVP07-68 anti-HER2 diabody (Cys at Kabat L8 and L12, CDR3H cysteines removed, N-terminal serine; (His)6 tag) (other, Diabody; It is identical to AVP07-63 except that it carries only the C-terminal (His)6 tag) SVQLVQSGAEVKKPGESLKISCKGSGYSFTSYWIAWVRQMPGKGLEYMGLIYPGDSDTKYSPSFQGQVTISVDKSVSTAYLQWSSLKPSDSAVYFCARHDVGYASSSNAAKWPEYFQHWGQGTLVTVSSGGGGSQSVLTQPCSSCAAPGQKVTISCSGSSSNIGNNYVSWYQQLPGTVPKLLIYGHTNRPAGVPDRFSGSKSGTSASLAISGFRSEDEADYYCAAWDDSLSGWVFGGGTKLTVLG		binding result [2]: binds
AVP07-63-PEG24 L8-L12 Diabody (other, engineered cysteines at Kabat L8 and L12 (VL FR1) conjugated with maleimide-PEG24-methoxy, also called PEGylated AVP07-63) VH-linker-VL polypeptide of the diabody: SVQLVQSGAEVKKPGESLKISCKGSGYSFTSYWIAWVRQMPGKGLEYMGLIYPGDSDTKYSPSFQGQVTISVDKSVSTAYLQWSSLKPSDSAVYFCARHDVGYASSSNAAKWPEYFQHWGQGTLVTVSSGGGGSQSVLTQPCSSCAAPGQKVTISCSGSSSNIGNNYVSWYQQLPGTVPKLLIYGHTNRPAGVPDRFSGSKSGTSASLAISGFRSEDEADYYCAAWDDSLSGWVFGGGTKLTVLG		binding result [3]: binds
